Positions count from the first letter of the chain named. Numbers in names are those of the source.
B1: biotinylated JES6–1 antibody mutant S34A (VL) (antibody, V domains shown)
VH: EIQLQQSGPELRRPGSSVKLSCKASGYNITDYLIHWVRHRPEHGLEWIGWIDPEDGETRYAQKFQSKATLTADTSSNAAYMQLSSLTPEDTATYFCARSLDSTYIYPFAYWGQGTLVTVSS
VL: DIVMTQSPFSLAVSEGEMVTINCKSSQSLLASGNQKNYLAWYQQKPGQSPKLLIYYASTGQSGVPDRFIGSGSGTDFTLTISDVQAEDLADYYCLQHYISPPTFGAGTKLELK
B2: biotinylated JES6–1 antibody mutant Y41A (VL) (antibody, V domains shown)
VH: B1 VH
VL: B1 VL with A31S, Y38A
B3: biotinylated JES6–1 antibody mutant D58A (VH) (antibody, V domains shown)
VH: B1 VH with D55A
VL: B1 VL with A31S
B4: biotinylated JES6–1 antibody mutant H100A (VL) (antibody, V domains shown)
VH: B1 VH
VL: B1 VL with A31S, H97A
B5: biotinylated JES6–1 antibody mutant E60A (VH) (antibody, V domains shown)
VH: B1 VH with E57A
VL: B1 VL with A31S
B6: biotinylated JES6–1 antibody mutant D55A (VH) (antibody, V domains shown)
VH: B1 VH with D52A
VL: B1 VL with A31S
B7: biotinylated JES6–1 antibody mutant R62A (VH) (antibody, V domains shown)
VH: B1 VH with R59A
VL: B1 VL with A31S
B8: biotinylated JES6–1 antibody mutant Y101A (VL) (antibody, V domains shown)
VH: B1 VH
VL: B1 VL with A31S, Y98A

Target: IL-2 receptor βγ (Homo sapiens) (UniProt P14784)
Experiment: not given
Conditions: cited from earlier work

Sequence of IL-2 receptor βγ (Homo sapiens) (P14784 27-240, chain 1 of 2): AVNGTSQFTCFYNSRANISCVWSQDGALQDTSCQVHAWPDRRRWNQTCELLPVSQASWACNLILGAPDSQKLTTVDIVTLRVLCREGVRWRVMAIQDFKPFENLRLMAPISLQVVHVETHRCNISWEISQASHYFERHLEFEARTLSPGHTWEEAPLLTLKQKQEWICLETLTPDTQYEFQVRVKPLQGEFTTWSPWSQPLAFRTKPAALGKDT
Sequence of IL-2 receptor βγ (Homo sapiens) (P31785 23-262, chain 2 of 2, further chain): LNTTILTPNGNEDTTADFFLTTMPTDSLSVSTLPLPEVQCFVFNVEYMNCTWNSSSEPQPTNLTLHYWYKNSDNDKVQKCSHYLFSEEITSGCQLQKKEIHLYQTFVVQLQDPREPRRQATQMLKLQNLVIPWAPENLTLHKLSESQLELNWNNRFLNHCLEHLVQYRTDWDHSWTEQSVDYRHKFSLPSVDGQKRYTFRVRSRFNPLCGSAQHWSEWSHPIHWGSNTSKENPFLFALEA

Row | Molecule | Kd [nM]
1 | IL-2 (from UniProt P60568) | 1

Target: biotinylated mouse IL-2Rα (mIL-2Rα ectodomain with C-terminal biotin acceptor peptide) (mouse)
Experiment: SPR
Conditions: not given

Row | Molecule | Kd [nM]
2 | JES6–1 immunocytokine mutant Y41A (VL) (from UniProt P04351 21-169) | 130
3 | JES6–1 immunocytokine mutant D58A (VH) (from UniProt P04351 21-169) | 260
4 | JES6–1 immunocytokine mutant R62A (VH) (from UniProt P04351 21-169) | 190
5 | JES6–1 immunocytokine mutant D55A (VH) (from UniProt P04351 21-169) | 230
6 | JES6–1 immunocytokine mutant S34A (VL) (from UniProt P04351 21-169) | 170
7 | JES6–1 immunocytokine mutant H100A (VL) (from UniProt P04351 21-169) | 240
8 | JES6–1 immunocytokine (IL-2 tethered to the N-terminus of the JES6–1 antibody light chain) (from UniProt P04351 21-169) | 290
9 | JES6–1 immunocytokine mutant E60A (VH) (from UniProt P04351 21-169) | 210
10 | JES6–1 immunocytokine mutant Y101A (VL) (from UniProt P04351 21-169) | 140

Target: biotinylated mouse IL-2Rα (mIL-2Rα ectodomain with C-terminal biotin acceptor peptide) (mouse)
Experiment: SPR
Conditions: not given
Remark: another data set of the same source

Row | Molecule | Kd [nM]
11 | JES6–1 immunocytokine double mutant S34A+Y101A (VL) (from UniProt P04351 21-169) | 82
12 | JES6–1 immunocytokine (IL-2 tethered to the N-terminus of the JES6–1 antibody light chain) (from UniProt P04351 21-169) | 220
13 | JES6–1 immunocytokine double mutant S34A+Y41A (VL) (from UniProt P04351 21-169) | 210
14 | JY3 immunocytokine (JES6–1 immunocytokine double mutant Y41A+Y101A, VL) (from UniProt P04351 21-169) | 82
15 | JES6–1 immunocytokine triple mutant S34A+Y41A+Y101A (VL) (from UniProt P04351 21-169) | 130

Target: mouse IL-2 (mIL-2, amino acids 1–149), hexahistidine-tagged (Mus musculus, UniProt P04351)
Experiment: SPR
Conditions: not given

Sequence of mouse IL-2 (mIL-2, amino acids 1–149), hexahistidine-tagged (P04351 21-169): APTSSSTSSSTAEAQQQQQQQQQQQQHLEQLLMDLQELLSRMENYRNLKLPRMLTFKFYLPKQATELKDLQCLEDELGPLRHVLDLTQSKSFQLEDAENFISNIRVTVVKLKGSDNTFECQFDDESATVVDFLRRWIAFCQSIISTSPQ

Row | Molecule | Kd [nM]
16 | B1 | 6.5
17 | B2 | 6.4
18 | B3 | 200
19 | B4 | 62
20 | B5 | 56
21 | B6 | 500
22 | B7 | 4.3
23 | B8 | 12
